Source: article PMC10315065 (Journal of Innate Immunity, 2023)

How the values were obtained:
[1] = system: cell surface GAPDH, THP-1; format: cell-based; settings: IFNγ; empty vector vs GAPDH knockdown; n = 3
cell surface GAPDH, J774 = format: cell-based, mouse; settings: IFNγ 100 ng/mL, 24 h; n = 3
GAPDH, J774 = assay: GAPDH activity in cell lysate; format: cell-based, mouse
P2X7, THP-1 = format: cell-based; settings: IFNγ; empty vector vs GAPDH knockdown; n = 3

B1: IFNγ: recombinant mouse IFNγ (PeproTech #315-05) (protein, UniProt P01580 23-155, looked up)
Interferon gamma: HGTVIESLESLNNYFNSSGIDVEEKSLFLDIWRNWQKDGDMKILQSQIISFYLRLFEVLKDNQAISNNISVIESHLITTFFSNSKAKKDAFMSIAKFEVNNPQVQRQAFNELIRVVHQLLPESSLRKRKRSRC
GAPDH recruitment on the cell surface, WT and GAPDH K/D [1]: enhanced GAPDH recruitment on the cell surface of WT cells but failed to do so in GAPDH K/D cells | increase in cell surface GAPDH localization (cell surface GAPDH, J774): ~50% | GAPDH activity (GAPDH, J774; IFNγ 100 ng/mL, 24 h): enhanced GAPDH activity | total cellular GAPDH (GAPDH, J774; IFNγ treatment, Fig. 1i): significant increase in total cellular GAPDH | surface P2X7 expression (P2X7, THP-1): surface expression of P2X7 continued to be elevated irrespective of GAPDH K/D
